Usually Ki stands for a measure of affinity in units of concentration, obtained from inhibition or displacement. Read a high Ki as a looser hold on the target.

The assay concerns the target human factor Xa (Enzyme Research Laboratories, Inc.) (human, UniProt P00742 41-179; P00742 235-488, limits assumed). The assay can be described thus: chromogenic FXa inhibition. How it is done: TBS-P buffer (50 mM Tris-Cl, pH 7.8, 200 mM NaCl, 0.05% (w/v) PEG-8000, 0.02% (w/v) NaN_3) was used for this assay. The IC$50$ was determined by combining in appropriate wells of a Costar half-area microtiter plate 25 μl human factor Xa (Enzyme Research Laboratories, Inc.; South Bend Ind.) in TBS-P; 40 μl 10% (v/v) DMSO in TBS-P (uninhibited control) or various concentrations of a peptide to be tested diluted in 10% (v/v) DMSO in TBS-P; and substrate S-2765 (Nα-benzyloxycarbonyl-D-Arg-Gly-L-Arg-p-nitroanilide; Kabi Pharmacia, Inc.; Franklin Ohio) in TBS-P.
The assays were performed by pre-incubating the peptide inhibitor plus enzyme for 10 min, then the assay was initiated by adding substrate to obtain a final volume of 100 μl. The initial velocity of chromogenic substrate hydrolysis was measured by the change in absorbance at 405 nm using a Bio-tek Instruments kinetic plate reader (Ceres UV900HDi) at 25° C. during the linear portion of the time course (usually 1–5 min after addition of substrate). The concentration of inhibitor that caused a 50% decrease in the rate of substrate hydrolysis was predicted by linear regression after plotting the relative rates of hydrolysis (compared to the uninhibited control) versus the log of the peptide concentration. The enzyme concentration was 0.5 nM and substrate concentration was 140 μM.

Non-standard residues stand in square brackets, D forms with d. No end group written: not given here. *: point of attachment. Ala(1-Me-3-pyridinium) = C[n+]1cccc(C[C@H](N)C(=O)O)c1; Phe(4-guanidino) = N=C(N)Nc1ccc(C[C@H](N)C(=O)O)cc1; Phe(4-CN) = N#Cc1ccc(C[C@H](N)C(=O)O)cc1; Phe(4-NH2) = Nc1ccc(C[C@H](N)C(=O)O)cc1; dPhe(4-F) = N[C@H](Cc1ccc(F)cc1)C(=O)O; 1Nal = N[C@@H](Cc1cccc2ccccc12)C(=O)O; 2Nal = N[C@@H](Cc1ccc2ccccc2c1)C(=O)O; (CH3CH2CH2(CH3))G = N-alkylglycine; Gly(N-cHex) = O=C(O)CNC1CCCCC1; Chg = N[C@H](C(=O)O)C1CCCCC1; Nle = CCCC[C@H](N)C(=O)O; Nphe = O=C(O)CNCc1ccccc1; Tfa = O=C(C(F)(F)F)*

human factor Xa (Enzyme Research Laboratories, Inc.), sequence (P00742 41-179 limits assumed, chain 1 of 2): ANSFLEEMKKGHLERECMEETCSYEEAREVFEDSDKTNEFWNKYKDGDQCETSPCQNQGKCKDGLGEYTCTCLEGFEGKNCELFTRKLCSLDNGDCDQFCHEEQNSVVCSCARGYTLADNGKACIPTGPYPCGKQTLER
human factor Xa (Enzyme Research Laboratories, Inc.), sequence (P00742 235-488 limits assumed, chain 2 of 2): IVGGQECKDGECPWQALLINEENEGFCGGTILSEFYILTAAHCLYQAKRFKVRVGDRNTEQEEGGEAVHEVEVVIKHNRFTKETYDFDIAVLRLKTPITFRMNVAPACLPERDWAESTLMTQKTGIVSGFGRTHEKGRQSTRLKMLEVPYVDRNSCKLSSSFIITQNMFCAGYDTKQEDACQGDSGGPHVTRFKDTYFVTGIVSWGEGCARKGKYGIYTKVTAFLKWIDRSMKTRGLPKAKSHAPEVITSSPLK

B1: Ac-F(pCN)-I-R-L-P-NH2 (peptide)
peptide: Ac-[Phe(4-CN)]IRLP-NH2
SMILES: CC[C@H](C)[C@H](NC(=O)[C@H](Cc1ccc(C#N)cc1)NC(C)=O)C(=O)N[C@@H](CCCNC(=N)N)C(=O)N[C@@H](CC(C)C)C(=O)N1CCC[C@H]1C(N)=O
The molecule B1 came in with an inhibitory constant (Ki) below 100 µM.

B2: Ac-Y-I-PalMe(3)-L-P-NH2 (peptide)
peptide: Ac-YI[Ala(1-Me-3-pyridinium)]LP-NH2
SMILES: CC[C@H](C)[C@H](NC(=O)[C@H](Cc1ccc(O)cc1)NC(C)=O)C(=O)N[C@@H](Cc1ccc[n+](C)c1)C(=O)N[C@@H](CC(C)C)C(=O)N1CCC[C@H]1C(N)=O
B2 yielded a Ki below 100 µM.

B3: Ac-Phe-(pGua)-I-R-L-P-NH2 (peptide)
peptide: Ac-[Phe(4-guanidino)]IRLP-NH2
SMILES: CC[C@H](C)[C@H](NC(=O)[C@H](Cc1ccc(NC(=N)N)cc1)NC(C)=O)C(=O)N[C@@H](CCCNC(=N)N)C(=O)N[C@@H](CC(C)C)C(=O)N1CCC[C@H]1C(N)=O
In turn, B3 gave a Ki below 100 µM.

B4: Ac-G-Y-Nle-R-L-NH2 (peptide)
peptide: Ac-GY[Nle]RL-NH2
SMILES: CCCC[C@H](NC(=O)[C@H](Cc1ccc(O)cc1)NC(=O)CNC(C)=O)C(=O)N[C@@H](CCCNC(=N)N)C(=O)N[C@@H](CC(C)C)C(N)=O
For the molecule B4, the Ki is below 100 µM.

B5: Ac-F(pNH2)-I-R-L-P-NH2 (peptide)
peptide: Ac-[Phe(4-NH2)]IRLP-NH2
SMILES: CC[C@H](C)[C@H](NC(=O)[C@H](Cc1ccc(N)cc1)NC(C)=O)C(=O)N[C@@H](CCCNC(=N)N)C(=O)N[C@@H](CC(C)C)C(=O)N1CCC[C@H]1C(N)=O
B5 gave a Ki below 100 µM.

B6: Ac-F(pNH2)-Chg-R-(Bzl)G-G-OH (peptide)
peptide: Ac-[Phe(4-NH2)][Chg]R[Nphe]G-OH
SMILES: CC(=O)N[C@@H](Cc1ccc(N)cc1)C(=O)N[C@H](C(=O)N[C@@H](CCCNC(=N)N)C(=O)N(CC(=O)NCC(=O)O)Cc1ccccc1)C1CCCCC1
Take B6: the inhibitory constant (Ki) was below 100 µM.
XIRLP (N-term Ac; Y1=Y(Me) O-methyl tyrosine; C-term NH2) [Ac-Y(Me)-I-R-L-P-NH2] returned a Ki below 100 µM.
For Ac-YIRLP-NH2 (also: pseudo peptide bond ψ(CH2N(Ac)) between Y1 and I2) [Ac-Y-{ψ(CH2N(Ac))}-I-R-L-P-NH2], the Ki is below 100 µM.

B7: Ac-G-y-Nle-R-L-NH2 (peptide)
peptide: Ac-G[dY][Nle]RL-NH2
SMILES: CCCC[C@H](NC(=O)[C@@H](Cc1ccc(O)cc1)NC(=O)CNC(C)=O)C(=O)N[C@@H](CCCNC(=N)N)C(=O)N[C@@H](CC(C)C)C(N)=O
Consider B7, for which the Ki was below 100 µM.
With Ac-SYIRLP-NH2 [Ac-S-Y-I-R-L-P-NH2], the Ki was below 100 µM.
The result for GYIRLP-NH2 [G-Y-I-R-L-P-NH2] reads below 100 µM; that for Ac-GGYIRG-NH2 [Ac-G-G-Y-I-R-G-NH2], below 100 µM; that for Ac-YIRGP-NH2 (also: pseudo peptide bond ψ(COCH2) between R3 and G4) [Ac-Y-I-R-{ψ(COCH2)}-G-P-NH2], below 100 µM.

B8: Ac-f(pF)-I-R-L-P-NH2 (peptide)
peptide: Ac-[dPhe(4-F)]IRLP-NH2
SMILES: CC[C@H](C)[C@H](NC(=O)[C@@H](Cc1ccc(F)cc1)NC(C)=O)C(=O)N[C@@H](CCCNC(=N)N)C(=O)N[C@@H](CC(C)C)C(=O)N1CCC[C@H]1C(N)=O
B8 had an inhibitory constant (Ki) below 100 µM.
As for YIRGA-NH2 [Y-I-R-G-A-NH2], the Ki was below 100 µM.
[dY]IRGP-NH2 (also: R3-G4 (COCH2) bond replaces peptide bond) [y-I-R(COCH2)-G-P-NH2] showed a Ki below 100 µM.

B9: f-I-R-I-P-NH2 (peptide)
peptide: [dF]IRIP-NH2
modifications: N-terminus assumed
SMILES: CC[C@H](C)[C@H](NC(=O)[C@H](N)Cc1ccccc1)C(=O)N[C@@H](CCCNC(=N)N)C(=O)N[C@H](C(=O)N1CCC[C@H]1C(N)=O)[C@@H](C)CC
In the case of B9, the Ki was below 100 µM.
YIRIY-NH2 [Y-I-R-I-Y-NH2]: the inhibition constant (Ki) is below 100 µM.

B10: f-I-R-F-P-NH2 (peptide)
peptide: [dF]IRFP-NH2
modifications: N-terminus assumed
SMILES: CC[C@H](C)[C@H](NC(=O)[C@H](N)Cc1ccccc1)C(=O)N[C@@H](CCCNC(=N)N)C(=O)N[C@@H](Cc1ccccc1)C(=O)N1CCC[C@H]1C(N)=O
In turn, B10 yielded an inhibition constant (Ki) below 100 µM.

B11: y-I-R-L-A-NH2 (peptide)
peptide: [dY]IRLA-NH2
modifications: N-terminus assumed
SMILES: CC[C@H](C)[C@H](NC(=O)[C@H](N)Cc1ccc(O)cc1)C(=O)N[C@@H](CCCNC(=N)N)C(=O)N[C@@H](CC(C)C)C(=O)N[C@@H](C)C(N)=O
For B11, the inhibitory constant (Ki) is below 100 µM.
The result for Ac-[dY]IRLA [Ac-y-I-R-L-A] reads below 100 µM.

B12: f(pF)-I-R-L-P-NH2 (peptide)
peptide: [dPhe(4-F)]IRLP-NH2
modifications: N-terminus assumed
SMILES: CC[C@H](C)[C@H](NC(=O)[C@H](N)Cc1ccc(F)cc1)C(=O)N[C@@H](CCCNC(=N)N)C(=O)N[C@@H](CC(C)C)C(=O)N1CCC[C@H]1C(N)=O
Molecule B12 came in with an inhibition constant (Ki) below 100 µM.
In turn, {N‑morpholinyl‑CO}-FIRLP-NH2 [N-morpholinyl-CO-F-I-R-L-P-NH2] registered an inhibition constant Ki below 100 µM.

B13: Y-I-R-L-a-NH2 (peptide)
peptide: YIRL[dA]-NH2
modifications: N-terminus assumed
SMILES: CC[C@H](C)[C@H](NC(=O)[C@@H](N)Cc1ccc(O)cc1)C(=O)N[C@@H](CCCNC(=N)N)C(=O)N[C@@H](CC(C)C)C(=O)N[C@H](C)C(N)=O
In turn, B13 had a Ki below 100 µM.
For the molecule Ac-YNRLP-NH2 [Ac-Y-N-R-L-P-NH2], the Ki was below 100 µM.
On to YIRLA-NH2 [Y-I-R-L-A-NH2], for which the Ki was below 100 µM.
The result for Ac-YIRLP-NH2 (also: reduced pseudo peptide bond ψ(CH2NH) between I2 and R3) [Ac-Y-I-{ψ(CH2NH)}-R-L-P-NH2] reads below 100 µM; that for Ac-[2Nal]IRLP-NH2 [Ac-Nal(2)-I-R-L-P-NH2], below 100 µM; that for Ac-[1Nal]IRLP-NH2 [Ac-Nal(1)-I-R-L-P-NH2], below 100 µM.
On to Ac-YIRLP-NH2 (also: reduced pseudo peptide bond ψ(CH2NH) between Y1 and I2) [Ac-Y-{ψ(CH2NH)}-I-R-L-P-NH2], for which the Ki is below 100 µM.

B14: Ac-F(pNH2)-Chg-R-(Chx)G-G-OH (peptide)
peptide: Ac-[Phe(4-NH2)][Chg]R[Gly(N-cHex)]G-OH
SMILES: CC(=O)N[C@@H](Cc1ccc(N)cc1)C(=O)N[C@H](C(=O)N[C@@H](CCCNC(=N)N)C(=O)N(CC(=O)NCC(=O)O)C1CCCCC1)C1CCCCC1
As for B14, the Ki was below 100 µM.
Ac-YIRL [Ac-Y-I-R-L]: the inhibition constant (Ki) was below 100 µM.
The result for Tfa-[N(iBu)Y]IRG-NH2 [Tfa-(iBu)Y-I-R-G-NH2] reads below 100 µM.
The result for FIRL-NH2 (probably F-I-R-L-NH2) [F-I-R-L-N-H2] reads below 100 µM; that for Ac-YNRL-NH2 [Ac-Y-N-R-L-NH2], below 100 µM; that for Ac-YIRI [Ac-Y-I-R-I], below 100 µM.
In turn, Ac-[Phe(4-NH2)][Chg]R[(CH3CH2CH2(CH3))G]G-OH (name runs over rows r100 and r101) [Ac-F(pNH2)-Chg-R-(CH3CH2CH2(CH3))G-G-OH] displayed an inhibition constant (Ki) below 100 µM.
Ac-WLRLA-NH2 [Ac-W-L-R-L-A-NH2] gave a Ki below 100 µM.
With WLRVA-NH2 [W-L-R-V-A-NH2] the figure was below 100 µM.

B15: w-L-R-V-A-NH2 (peptide)
peptide: [dW]LRVA-NH2
modifications: N-terminus assumed
SMILES: CC(C)C[C@H](NC(=O)[C@H](N)Cc1c[nH]c2ccccc12)C(=O)N[C@@H](CCCNC(=N)N)C(=O)N[C@H](C(=O)N[C@@H](C)C(N)=O)C(C)C
B15 registered a Ki below 100 µM.

These data come from patent US6759384 (AVENTIS PHARMACEUTICALS, dated 2004).
